Measurements from US20180311371A1 (Hoffmann-La Roche, published 2018).

What was measured:
[1] = target: T1, human TPBG (trophoblast glycoprotein), full length, cell surface expressed (human, UniProt Q13641 32-420); experiment: cell-based or functional assay
T1 sequence: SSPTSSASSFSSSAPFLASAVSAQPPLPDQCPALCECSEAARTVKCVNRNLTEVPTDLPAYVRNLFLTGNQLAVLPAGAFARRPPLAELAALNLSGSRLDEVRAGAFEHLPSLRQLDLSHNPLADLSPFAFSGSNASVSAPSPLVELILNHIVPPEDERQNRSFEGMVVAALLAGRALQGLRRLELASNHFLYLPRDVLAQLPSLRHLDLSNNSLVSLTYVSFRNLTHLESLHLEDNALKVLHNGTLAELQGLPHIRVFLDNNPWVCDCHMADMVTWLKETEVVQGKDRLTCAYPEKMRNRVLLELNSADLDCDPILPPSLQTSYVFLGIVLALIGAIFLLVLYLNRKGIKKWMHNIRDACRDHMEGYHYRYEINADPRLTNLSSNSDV

[2] = target: T1, human TPBG (trophoblast glycoprotein), …; experiment: cell-based or functional assay; remark: listed apart in the source
[3] = target: T2, minipig TPBG, full length, cell surface expressed on CHO-K1 cells (minipig); experiment: cell-based or functional assay
T2 chain: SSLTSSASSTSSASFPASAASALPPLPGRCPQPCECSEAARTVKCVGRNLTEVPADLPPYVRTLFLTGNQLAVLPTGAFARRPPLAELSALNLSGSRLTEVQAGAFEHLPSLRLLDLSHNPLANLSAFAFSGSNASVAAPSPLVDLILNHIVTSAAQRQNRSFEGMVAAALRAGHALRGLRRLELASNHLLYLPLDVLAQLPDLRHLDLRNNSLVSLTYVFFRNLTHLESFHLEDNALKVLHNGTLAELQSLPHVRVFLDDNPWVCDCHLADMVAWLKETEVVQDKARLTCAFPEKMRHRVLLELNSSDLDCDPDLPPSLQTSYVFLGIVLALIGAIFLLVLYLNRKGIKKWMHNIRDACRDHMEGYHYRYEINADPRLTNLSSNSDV

[4] = target: T1, human TPBG (trophoblast glycoprotein), …; experiment: cell-based or functional assay; remark: listed apart in the source
[5] = target: T1, human TPBG (trophoblast glycoprotein), …; experiment: cell-based or functional assay; remark: listed apart in the source
[6] = target: T1, human TPBG (trophoblast glycoprotein), …; experiment: cell ELISA on MCF7 cells; titrated from 5 µg/ml
[7] = target: T3, huTPBG (recombinant human TPBG immobilised on the Biacore chip) (human, UniProt Q13641 32-355, limits assumed); experiment: SPR Biacore T200; huTPBG amine-coupled, Fab injected
T3 construct: also called human TPBG antigen
T3 sequence: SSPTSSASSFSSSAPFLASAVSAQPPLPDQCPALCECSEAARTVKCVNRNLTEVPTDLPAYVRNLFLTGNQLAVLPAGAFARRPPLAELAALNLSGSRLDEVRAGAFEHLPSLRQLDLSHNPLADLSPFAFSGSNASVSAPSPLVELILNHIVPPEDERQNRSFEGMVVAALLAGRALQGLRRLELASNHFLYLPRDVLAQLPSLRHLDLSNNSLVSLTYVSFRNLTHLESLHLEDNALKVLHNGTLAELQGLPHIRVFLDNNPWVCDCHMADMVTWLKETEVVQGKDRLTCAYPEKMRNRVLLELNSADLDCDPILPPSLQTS

[8] = target: T1, human TPBG (trophoblast glycoprotein), …; experiment: flow cytometry on SW620 clone 4 cells; ratio of MFI; replicate 1
[9] = target: T1, human TPBG (trophoblast glycoprotein), …; experiment: flow cytometry on SW620 clone 4 cells; ratio of MFI; replicate 2
[10] = target: T4, recombinant extracellular domain of minipig TPBG (Biacore analyte) (minipig); experiment: SPR Biacore T200; Fab captured by anti-huFab, minipig TPBG injected
T4 chain: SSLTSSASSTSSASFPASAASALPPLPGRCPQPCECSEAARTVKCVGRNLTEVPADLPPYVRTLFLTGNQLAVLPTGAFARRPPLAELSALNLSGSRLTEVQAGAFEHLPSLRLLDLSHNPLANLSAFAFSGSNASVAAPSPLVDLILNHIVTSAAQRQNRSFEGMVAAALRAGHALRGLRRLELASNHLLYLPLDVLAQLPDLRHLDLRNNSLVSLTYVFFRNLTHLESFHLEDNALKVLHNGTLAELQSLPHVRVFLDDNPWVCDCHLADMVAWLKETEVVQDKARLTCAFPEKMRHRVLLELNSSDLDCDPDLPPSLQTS

[11] = target: T5, human TPBG extracellular domain, His6Avi, biotinylated (human, biotinylated); experiment: ELISA; biotinylated TPBG-AviHis on streptavidin plate; Fab titrated from 2 µg/ml
T5 construct: also called huTPBG; human TPBG-AviHis
T5 chain: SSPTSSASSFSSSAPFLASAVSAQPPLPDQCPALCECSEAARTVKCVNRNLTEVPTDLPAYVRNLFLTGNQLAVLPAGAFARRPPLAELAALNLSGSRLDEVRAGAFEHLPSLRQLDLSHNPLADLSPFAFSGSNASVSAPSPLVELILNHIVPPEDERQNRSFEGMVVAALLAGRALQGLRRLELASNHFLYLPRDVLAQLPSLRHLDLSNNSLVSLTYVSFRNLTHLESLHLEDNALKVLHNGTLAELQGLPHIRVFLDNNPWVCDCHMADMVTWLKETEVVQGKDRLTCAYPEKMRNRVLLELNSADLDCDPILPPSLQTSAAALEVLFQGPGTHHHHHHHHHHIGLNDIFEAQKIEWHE

[12] = target: T6, minipig TPBG extracellular domain, His6Avi, biotinylated (minipig, biotinylated); experiment: as above
T6 construct: also called mpTPBG; minipig TPBG-AviHis
T6 chain: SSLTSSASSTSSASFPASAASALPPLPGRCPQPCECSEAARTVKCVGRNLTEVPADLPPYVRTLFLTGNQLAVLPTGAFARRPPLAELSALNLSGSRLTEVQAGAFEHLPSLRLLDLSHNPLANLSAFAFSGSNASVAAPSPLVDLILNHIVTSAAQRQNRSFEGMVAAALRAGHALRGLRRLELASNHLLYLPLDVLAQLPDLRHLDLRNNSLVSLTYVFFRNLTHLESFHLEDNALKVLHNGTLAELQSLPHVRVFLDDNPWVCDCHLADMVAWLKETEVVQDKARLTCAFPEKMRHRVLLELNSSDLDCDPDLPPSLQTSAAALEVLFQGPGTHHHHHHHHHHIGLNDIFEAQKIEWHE

[13] = target: T7, minipig TPBG extracellular domain, huIgG1-Fc-His (minipig); experiment: ELISA; Fc-TPBG coated; mAb titrated from 1 µg/ml
T7 construct: also called Fc-TPBG (mp)

[14] = target: T8, human TPBG extracellular domain, huIgG1-Fc-His6 (human); experiment: ELISA; Fc-TPBG coated; mAb titrated from 1 µg/ml
T8 construct: also called Fc-TPBG (hu)

B1: anti-TPBG antibody 051, Fab fragment (Fab, V domains shown)
VH: EVQLLESGGGLLQPGGSLRLSCAASGFTFSIYWMTWVRQAPGKGLEWVSAISGSGGSTYYADSVKGRFTISRDNSKNTLYLQMNSLRAEDTAVYYCAKDYYSNVYWGQGTLVTVSS
VL: DIQMTQSPSSVSASVGDRVTITCRASQGIYSWLAWYQQKPGKAPKLLIYAASSLQSGVPSRFSGSGSGTDFTLTISSLQPEDFATYYCQQSDSPPYTFGQGTKLEIK
notes: also called Fab3
[1]
  internalization after 0.5 h, MCF7 cells: 31%
  internalization after 1.0 h, MCF7 cells: 55%
  internalization after 2.0 h, MCF7 cells: 72%
[2]
  EC50 cytotoxicity, Fab + anti-kappa-Fab-PE, CHO-K1/human TPBG, replicate 1: 0.28 nM
  EC50 cytotoxicity, Fab + anti-kappa-Fab-PE, CHO-K1/human TPBG, replicate 2: 0.38 nM
[3]
  EC50 cytotoxicity, Fab + anti-kappa-Fab-PE, CHO-K1/minipig TPBG, replicate 1: 6.18 nM
  EC50 cytotoxicity, Fab + anti-kappa-Fab-PE, CHO-K1/minipig TPBG, replicate 2: 5.04 nM
[4]
  EC50 cytotoxicity, Fab-PE sandwich construct, MCF7: 1.35 nM
  X-fold higher potency compared to TPBG(H8)PE, MCF7: 1.1 fold
[5]
  EC50 cytotoxicity, Fab-PE sandwich construct, H1975, replicate 1: 0.522 nM
  EC50 cytotoxicity, Fab-PE sandwich construct, H1975, replicate 2: 0.397 nM
  EC50 cytotoxicity, Fab-PE sandwich construct, H1975, replicate 3: 0.527 nM
[6]
  EC50: 0.0575 µg/mL
[7]
  Kd: 0.16 nM
  koff: 7.83e-05 s⁻¹
  kon: 489000 M⁻¹ s⁻¹
[8]
  Fold change pH 7.2 vs pH 5.5: 1.1 fold
[9]
  Fold change pH 7.2 vs pH 5.5: 1.1 fold
[10]
  Kd: 2.05 nM
  koff: 0.000193 s⁻¹
  kon: 94000 M⁻¹ s⁻¹
[11]
  EC50: 0.0181 µg/mL
[12]
  EC50: 0.175 µg/mL

B2: anti-TPBG antibody 051 (mAb) (antibody, V domains shown)
VH: B1 VH
VL: B1 VL
[13]
  binding result: binds
[14]
  binding result: binds

B3: anti-TPBG antibody 097, Fab fragment (Fab, V domains shown)
VH: EVQLLESGGGLAQPGGSLRLSCAASGFTFNNDAMTWVRQAPGKGLEWVSAISGSGGSTYYADSVKGRFTISRDNSKNTLYLQMNSLRAEDTAVYYCAKGGSWGDWYYYFYPMDVWGQGTTVTVSS
VL: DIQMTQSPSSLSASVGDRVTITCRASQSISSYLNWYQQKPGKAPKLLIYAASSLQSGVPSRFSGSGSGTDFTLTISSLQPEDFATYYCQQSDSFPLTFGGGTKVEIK
notes: also called Fab4
[1]
  internalization after 0.5 h, MCF7 cells: 28%
  internalization after 1.0 h, MCF7 cells: 42%
  internalization after 2.0 h, MCF7 cells: 61%
[2]
  EC50 cytotoxicity, Fab + anti-kappa-Fab-PE, CHO-K1/human TPBG, replicate 1: 0.3 nM
  EC50 cytotoxicity, Fab + anti-kappa-Fab-PE, CHO-K1/human TPBG, replicate 2: 0.33 nM
[3]
  EC50 cytotoxicity, Fab + anti-kappa-Fab-PE, CHO-K1/minipig TPBG, replicate 1: 2.08 nM
  EC50 cytotoxicity, Fab + anti-kappa-Fab-PE, CHO-K1/minipig TPBG, replicate 2: 2.15 nM
[4]
  EC50 cytotoxicity, Fab-PE sandwich construct, MCF7: 0.935 nM
  X-fold higher potency compared to TPBG(H8)PE, MCF7, first experiment: 1.3 fold
  X-fold higher potency compared to TPBG(H8)PE, MCF7, second experiment: 2.4 fold
[5]
  EC50 cytotoxicity, Fab-PE sandwich construct, H1975, replicate 1: 0.826 nM
  EC50 cytotoxicity, Fab-PE sandwich construct, H1975, replicate 2: 0.656 nM
  EC50 cytotoxicity, Fab-PE sandwich construct, H1975, replicate 3: 0.706 nM
[6]
  EC50: 0.451 µg/mL
[7]
  Kd: 0.82 nM
  koff: 0.000814 s⁻¹
  kon: 993000 M⁻¹ s⁻¹
[8]
  Fold change pH 7.2 vs pH 5.5: 1.2 fold
[9]
  Fold change pH 7.2 vs pH 5.5: 1.2 fold
[10]
  Kd: 1.35 nM
  koff: 0.000254 s⁻¹
  kon: 189000 M⁻¹ s⁻¹
[11]
  EC50: 0.0152 µg/mL
[12]
  EC50: 0.0436 µg/mL
